This test has as its target T1, human IL-33 WT (R&D) (human, UniProt O95760 112-270).
T1 construct: R&D Systems Cat. No. 3625-IL/CF, wild-type cysteines; DTT pretreatment in some assays is said under assay or readout; also called IL-33 (R&D); hIL-33 (R&D)
T1 sequence: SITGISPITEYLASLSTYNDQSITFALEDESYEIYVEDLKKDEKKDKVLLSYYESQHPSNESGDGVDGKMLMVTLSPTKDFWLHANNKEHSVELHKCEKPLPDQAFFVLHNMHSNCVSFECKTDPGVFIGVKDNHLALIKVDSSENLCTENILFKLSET
Put plainly: Octet, captured on anti-Fc tip; IL-33 premixed with IL33-158LS (competitor). Background: In BLI a coated tip is dipped into the sample, and binding shifts an interference pattern.

B1: IL33-271 (antibody, human IgG1, kappa, V domains shown)
VH: QVLLVQSGAEVKKPGATVKVSCKASGSTFTGYYMHWVRQAPGQGLEWMGWINPNNGGTNYAQKFQGRVTMTRDTSISTAYMELSRLRSDDTAVYYCARELRYNWKSWGQGTLVTVSS
VL: EIVLTQSPGTLSLSPGERVTLSCRASQSVGRPYLAWYQQIPGQAPRLLIYGASSRATDIPDRFSGNGSGTDFTLTISRLEPEDFAVYYCQQYDNSPYTFGQGTRLEIKR
notes: also called control non-neutralizing anti-IL-33 antibody
For B1, the binding result was “binds”.

The record behind these values is US20180037644A1 (Pfizer, published 2018).
